Data from patent US20210139548A1 (published 2021).
One block for each binder: values may come before it. *1 amine or outer side, *2 acyl side, *3 side chain or, on linkers, in order; H or OH if unused. Side-chain parts run from the residue outwards. The star is where a group is joined. C18 diacid = O=C(O)CCCCCCCCCCCCCCCCC(=O)*; γGlu = O=C(O)[C@H](CCC(=O)[*:2])N[*:1]; Isovaleryl = CC(C)CC(=O)*; AEEA = NCCOCCOCC(=O)O

Target: T1, human neuropeptide Y2 receptor (human, UniProt P49146 1-381)
T1 construct: whole, on cells; also called hNPY2 receptor; hNPY2-R
T1 sequence (looked up): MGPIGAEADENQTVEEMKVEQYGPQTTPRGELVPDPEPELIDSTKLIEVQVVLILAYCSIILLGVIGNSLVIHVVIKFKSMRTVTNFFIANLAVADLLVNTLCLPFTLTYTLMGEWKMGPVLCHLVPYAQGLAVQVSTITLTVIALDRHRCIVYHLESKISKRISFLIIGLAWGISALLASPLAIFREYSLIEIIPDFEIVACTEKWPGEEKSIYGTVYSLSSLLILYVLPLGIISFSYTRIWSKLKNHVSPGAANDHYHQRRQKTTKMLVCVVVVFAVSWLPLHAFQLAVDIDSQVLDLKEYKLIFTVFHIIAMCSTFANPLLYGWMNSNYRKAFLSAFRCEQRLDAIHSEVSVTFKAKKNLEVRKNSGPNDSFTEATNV
Assay: radioligand competition (125I-PYY(1-36)), hNPY2R membranes
Procedure: The filtration RLB assay was carried out in 96-well plates in a final volume of 100 μl per well. Freeze-dried test peptides were dissolved in 100% dimethyl sulfoxide (DMSO) to stock solutions of 1 mM and serial dilutions were performed in assay buffer (50 mM HEPES, 5 mM MgCl₂, 1 mM CaCl₂, pH 7.4) containing 0.2% ovalbumin. […] Next, 80 μL membranes (HTS066M, ChemiSCREEN™ Human Neuropeptide Y2 Receptor Membrane Preparation, CHEMICON) were added to each well to give a final protein concentration of 0.5 μg/well. The plates were sealed and incubated at room temperature for 2 hours in a plate shaker set at 400 rpm. The incubation was stopped by vacuum filtration onto 0.5% poly-ethylene amine (PEI) presoaked GF/C filters using a 96-well FilterMate™ harvester (Perkin Elmer) followed by four washes with 300 μl/well ice-cold wash buffer (50 mM HEPES, 500 mM NaCl, pH7.4). Filter plates were then dried for 60 min at room temperature and the bottom of the plates was sealed with backing tape UniFilter-96. Finally, 50 μl/well scintillation counter cocktail (Microscint20, Packard) was added and the radioactivity was counted in the Packard TopCount NXT scintillation counter. IC₅₀ values (the half maximal inhibitory concentration of the agonist) were calculated by nonlinear regression analysis of sigmoidal dose-response curves.

B3: Compound 10 (peptide)
peptide: Isovaleryl-APEK([AEEA-AEEA-γGlu-C18 diacid])PEADASPEETQRYYVSLRHYYNWLTRQRY-NH2
SMILES: CC(C)CC(=O)N[C@@H](C)C(=O)N1CCC[C@H]1C(=O)N[C@@H](CCC(=O)O)C(=O)N[C@@H](CCCCNC(=O)COCCOCCNC(=O)COCCOCCNC(=O)CC[C@H](NC(=O)CCCCCCCCCCCCCCCCC(=O)O)C(=O)O)C(=O)N1CCC[C@H]1C(=O)N[C@@H](CCC(=O)O)C(=O)N[C@@H](C)C(=O)N[C@@H](CC(=O)O)C(=O)N[C@@H](C)C(=O)N[C@@H](CO)C(=O)N1CCC[C@H]1C(=O)N[C@@H](CCC(=O)O)C(=O)N[C@@H](CCC(=O)O)C(=O)N[C@H](C(=O)N[C@@H](CCC(N)=O)C(=O)N[C@@H](CCCNC(=N)N)C(=O)N[C@@H](Cc1ccc(O)cc1)C(=O)N[C@@H](Cc1ccc(O)cc1)C(=O)N[C@H](C(=O)N[C@@H](CO)C(=O)N[C@@H](CC(C)C)C(=O)N[C@@H](CCCNC(=N)N)C(=O)N[C@@H](Cc1c[nH]cn1)C(=O)N[C@@H](Cc1ccc(O)cc1)C(=O)N[C@@H](Cc1ccc(O)cc1)C(=O)N[C@@H](CC(N)=O)C(=O)N[C@@H](Cc1c[nH]c2ccccc12)C(=O)N[C@@H](CC(C)C)C(=O)N[C@H](C(=O)N[C@@H](CCCNC(=N)N)C(=O)N[C@@H](CCC(N)=O)C(=O)N[C@@H](CCCNC(=N)N)C(=O)N[C@@H](Cc1ccc(O)cc1)C(N)=O)[C@@H](C)O)C(C)C)[C@@H](C)O
- Ki: 1.28 nM

B4: Compound 13 (peptide)
peptide: Isovaleryl-APEK([AEEA-AEEA-γGlu-C18 diacid])PEEDAAPEELQQYYVSLRHYYNWLTRQRY-NH2
SMILES: CC(C)CC(=O)N[C@@H](C)C(=O)N1CCC[C@H]1C(=O)N[C@@H](CCC(=O)O)C(=O)N[C@@H](CCCCNC(=O)COCCOCCNC(=O)COCCOCCNC(=O)CC[C@H](NC(=O)CCCCCCCCCCCCCCCCC(=O)O)C(=O)O)C(=O)N1CCC[C@H]1C(=O)N[C@@H](CCC(=O)O)C(=O)N[C@@H](CCC(=O)O)C(=O)N[C@@H](CC(=O)O)C(=O)N[C@@H](C)C(=O)N[C@@H](C)C(=O)N1CCC[C@H]1C(=O)N[C@@H](CCC(=O)O)C(=O)N[C@@H](CCC(=O)O)C(=O)N[C@@H](CC(C)C)C(=O)N[C@@H](CCC(N)=O)C(=O)N[C@@H](CCC(N)=O)C(=O)N[C@@H](Cc1ccc(O)cc1)C(=O)N[C@@H](Cc1ccc(O)cc1)C(=O)N[C@H](C(=O)N[C@@H](CO)C(=O)N[C@@H](CC(C)C)C(=O)N[C@@H](CCCNC(=N)N)C(=O)N[C@@H](Cc1c[nH]cn1)C(=O)N[C@@H](Cc1ccc(O)cc1)C(=O)N[C@@H](Cc1ccc(O)cc1)C(=O)N[C@@H](CC(N)=O)C(=O)N[C@@H](Cc1c[nH]c2ccccc12)C(=O)N[C@@H](CC(C)C)C(=O)N[C@H](C(=O)N[C@@H](CCCNC(=N)N)C(=O)N[C@@H](CCC(N)=O)C(=O)N[C@@H](CCCNC(=N)N)C(=O)N[C@@H](Cc1ccc(O)cc1)C(N)=O)[C@@H](C)O)C(C)C
- Ki: 1.29 nM

B5: Compound 9 (peptide)
peptide: Isovaleryl-APEK([AEEA-AEEA-γGlu-C18 diacid])PEEDASPEEIQRYYVELRHYYNWLTRQRY-NH2
SMILES: CC[C@H](C)[C@H](NC(=O)[C@H](CCC(=O)O)NC(=O)[C@H](CCC(=O)O)NC(=O)[C@@H]1CCCN1C(=O)[C@H](CO)NC(=O)[C@H](C)NC(=O)[C@H](CC(=O)O)NC(=O)[C@H](CCC(=O)O)NC(=O)[C@H](CCC(=O)O)NC(=O)[C@@H]1CCCN1C(=O)[C@H](CCCCNC(=O)COCCOCCNC(=O)COCCOCCNC(=O)CC[C@H](NC(=O)CCCCCCCCCCCCCCCCC(=O)O)C(=O)O)NC(=O)[C@H](CCC(=O)O)NC(=O)[C@@H]1CCCN1C(=O)[C@H](C)NC(=O)CC(C)C)C(=O)N[C@@H](CCC(N)=O)C(=O)N[C@@H](CCCNC(=N)N)C(=O)N[C@@H](Cc1ccc(O)cc1)C(=O)N[C@@H](Cc1ccc(O)cc1)C(=O)N[C@H](C(=O)N[C@@H](CCC(=O)O)C(=O)N[C@@H](CC(C)C)C(=O)N[C@@H](CCCNC(=N)N)C(=O)N[C@@H](Cc1c[nH]cn1)C(=O)N[C@@H](Cc1ccc(O)cc1)C(=O)N[C@@H](Cc1ccc(O)cc1)C(=O)N[C@@H](CC(N)=O)C(=O)N[C@@H](Cc1c[nH]c2ccccc12)C(=O)N[C@@H](CC(C)C)C(=O)N[C@H](C(=O)N[C@@H](CCCNC(=N)N)C(=O)N[C@@H](CCC(N)=O)C(=O)N[C@@H](CCCNC(=N)N)C(=O)N[C@@H](Cc1ccc(O)cc1)C(N)=O)[C@@H](C)O)C(C)C
- Ki: 1.22 nM

Continued by falling Ki, values first:

- Ki: 2.89 nM
B2: Compound 15 (peptide)
peptide: Isovaleryl-APEK([AEEA-AEEA-γGlu-C18 diacid])PEEDASPEEIQRYEVSLRHYYNWLTRQRY-NH2
SMILES: CC[C@H](C)[C@H](NC(=O)[C@H](CCC(=O)O)NC(=O)[C@H](CCC(=O)O)NC(=O)[C@@H]1CCCN1C(=O)[C@H](CO)NC(=O)[C@H](C)NC(=O)[C@H](CC(=O)O)NC(=O)[C@H](CCC(=O)O)NC(=O)[C@H](CCC(=O)O)NC(=O)[C@@H]1CCCN1C(=O)[C@H](CCCCNC(=O)COCCOCCNC(=O)COCCOCCNC(=O)CC[C@H](NC(=O)CCCCCCCCCCCCCCCCC(=O)O)C(=O)O)NC(=O)[C@H](CCC(=O)O)NC(=O)[C@@H]1CCCN1C(=O)[C@H](C)NC(=O)CC(C)C)C(=O)N[C@@H](CCC(N)=O)C(=O)N[C@@H](CCCNC(=N)N)C(=O)N[C@@H](Cc1ccc(O)cc1)C(=O)N[C@@H](CCC(=O)O)C(=O)N[C@H](C(=O)N[C@@H](CO)C(=O)N[C@@H](CC(C)C)C(=O)N[C@@H](CCCNC(=N)N)C(=O)N[C@@H](Cc1c[nH]cn1)C(=O)N[C@@H](Cc1ccc(O)cc1)C(=O)N[C@@H](Cc1ccc(O)cc1)C(=O)N[C@@H](CC(N)=O)C(=O)N[C@@H](Cc1c[nH]c2ccccc12)C(=O)N[C@@H](CC(C)C)C(=O)N[C@H](C(=O)N[C@@H](CCCNC(=N)N)C(=O)N[C@@H](CCC(N)=O)C(=O)N[C@@H](CCCNC(=N)N)C(=O)N[C@@H](Cc1ccc(O)cc1)C(N)=O)[C@@H](C)O)C(C)C

- Ki: 1.02 nM
B1: Compound 7 (peptide)
peptide: Isovaleryl-APEK([AEEA-AEEA-γGlu-C18 diacid])PEEDASPEELQAYYVSLRHYYNWLTRQRY-NH2
SMILES: CC(C)CC(=O)N[C@@H](C)C(=O)N1CCC[C@H]1C(=O)N[C@@H](CCC(=O)O)C(=O)N[C@@H](CCCCNC(=O)COCCOCCNC(=O)COCCOCCNC(=O)CC[C@H](NC(=O)CCCCCCCCCCCCCCCCC(=O)O)C(=O)O)C(=O)N1CCC[C@H]1C(=O)N[C@@H](CCC(=O)O)C(=O)N[C@@H](CCC(=O)O)C(=O)N[C@@H](CC(=O)O)C(=O)N[C@@H](C)C(=O)N[C@@H](CO)C(=O)N1CCC[C@H]1C(=O)N[C@@H](CCC(=O)O)C(=O)N[C@@H](CCC(=O)O)C(=O)N[C@@H](CC(C)C)C(=O)N[C@@H](CCC(N)=O)C(=O)N[C@@H](C)C(=O)N[C@@H](Cc1ccc(O)cc1)C(=O)N[C@@H](Cc1ccc(O)cc1)C(=O)N[C@H](C(=O)N[C@@H](CO)C(=O)N[C@@H](CC(C)C)C(=O)N[C@@H](CCCNC(=N)N)C(=O)N[C@@H](Cc1c[nH]cn1)C(=O)N[C@@H](Cc1ccc(O)cc1)C(=O)N[C@@H](Cc1ccc(O)cc1)C(=O)N[C@@H](CC(N)=O)C(=O)N[C@@H](Cc1c[nH]c2ccccc12)C(=O)N[C@@H](CC(C)C)C(=O)N[C@H](C(=O)N[C@@H](CCCNC(=N)N)C(=O)N[C@@H](CCC(N)=O)C(=O)N[C@@H](CCCNC(=N)N)C(=O)N[C@@H](Cc1ccc(O)cc1)C(N)=O)[C@@H](C)O)C(C)C

- Ki: 0.31 nM
B6: Compound 14 (peptide)
peptide: Isovaleryl-APEK([AEEA-AEEA-γGlu-C18 diacid])PEADATPEELQRYYVSLRHYYNWLTRQRY-NH2
SMILES: CC(C)CC(=O)N[C@@H](C)C(=O)N1CCC[C@H]1C(=O)N[C@@H](CCC(=O)O)C(=O)N[C@@H](CCCCNC(=O)COCCOCCNC(=O)COCCOCCNC(=O)CC[C@H](NC(=O)CCCCCCCCCCCCCCCCC(=O)O)C(=O)O)C(=O)N1CCC[C@H]1C(=O)N[C@@H](CCC(=O)O)C(=O)N[C@@H](C)C(=O)N[C@@H](CC(=O)O)C(=O)N[C@@H](C)C(=O)N[C@H](C(=O)N1CCC[C@H]1C(=O)N[C@@H](CCC(=O)O)C(=O)N[C@@H](CCC(=O)O)C(=O)N[C@@H](CC(C)C)C(=O)N[C@@H](CCC(N)=O)C(=O)N[C@@H](CCCNC(=N)N)C(=O)N[C@@H](Cc1ccc(O)cc1)C(=O)N[C@@H](Cc1ccc(O)cc1)C(=O)N[C@H](C(=O)N[C@@H](CO)C(=O)N[C@@H](CC(C)C)C(=O)N[C@@H](CCCNC(=N)N)C(=O)N[C@@H](Cc1c[nH]cn1)C(=O)N[C@@H](Cc1ccc(O)cc1)C(=O)N[C@@H](Cc1ccc(O)cc1)C(=O)N[C@@H](CC(N)=O)C(=O)N[C@@H](Cc1c[nH]c2ccccc12)C(=O)N[C@@H](CC(C)C)C(=O)N[C@H](C(=O)N[C@@H](CCCNC(=N)N)C(=O)N[C@@H](CCC(N)=O)C(=O)N[C@@H](CCCNC(=N)N)C(=O)N[C@@H](Cc1ccc(O)cc1)C(N)=O)[C@@H](C)O)C(C)C)[C@@H](C)O
